According to the supplement of paper PMC10126150:
± gives the standard deviation of the averaged measurements.
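Note: ATP exposure 15 min at 22 °C before imaging.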

These sequences were tested on ATP (assay: switch fluorescence ratio, 500 uM ATP over buffer (Cy3 cluster intensity, sum of 5 cycles each) (fold (ratio)); higher = stronger signal-on switching upon ATP binding; sequences stand for … in TCGTCGGCAGCGTCAGATGTGTATAAGAGACAGTTTTTTTTTTTTTTTTTTTTTTTTT…TC). Settings: aptamer strand: ATP DNA aptamer (quencher-CACCTGGGGGAGTATTGCGGAGGAAGG + anchor), 100 nM annealed; ATP concentration: 500 uM.
Method in brief: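 Cy3-labelled switching-strand clusters on a modified Illumina MiSeq flow-cell were annealed to 100 nM quencher-labelled ATP aptamer and imaged first in selection buffer, then after 15 min with 500 uM ATP at 22 °C. NaOH stripping and re-annealing separated each of five buffer/ATP cycles, and clusters outside 100-1000 RFU were excluded. The fluorescence ratio sums target-cycle Cy3 intensity over buffer-cycle Cy3 intensity per cluster and averages it per switch-domain sequence.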
Work on GTGTATAGCA yielded a switch fluorescence ratio of 1.03 ± 0.014. AGTACTAACT showed a switch fluorescence ratio of 1.05 ± 0.048. Work on TTGGGGACAT yielded a switch fluorescence ratio of 0.98 ± 0.043. CGACTAAGAG showed a switch fluorescence ratio of 1.02 ± 0.025. With TTGGAAGTGC the switch fluorescence ratio was 1 ± 0.056. Sequence ATTTGGATCT has a switch fluorescence ratio of 0.9725 ± 0.0068. Sequence TTTTGTTTGG has a switch fluorescence ratio of 1.02 ± 0.041. With TTGAAGTGCG the switch fluorescence ratio was 1.02 ± 0.049. With AGCTTTTTTG the switch fluorescence ratio was 1.024 ± 0.0039. Work on TTTTGTTGGT yielded a switch fluorescence ratio of 1 ± 0.028. CTTAGAAGCA was tested, and the switch fluorescence ratio was 0.9943 ± 0.0017. Sequence TAGACGGATT has a switch fluorescence ratio of 1.04 ± 0.066. CCGGTTAGG showed a switch fluorescence ratio of 0.998 ± 0.045. GAAGCTAGTA gave a switch fluorescence ratio of 1.02 ± 0.024. In the case of TACAGCTGCG, the switch fluorescence ratio is reported as 1.007 ± 0.0015. With TTCGGTAGGG the switch fluorescence ratio was 0.926 ± 0.053. In the case of CAGGAGGGAG, the switch fluorescence ratio is reported as 1.01 ± 0.011. In the case of ATATTTTGTA, the switch fluorescence ratio is reported as 0.983 ± 0.036. GCTTGTCTCG gave a switch fluorescence ratio of 1 ± 0.053. TTGAAACATT gave a switch fluorescence ratio of 1.01 ± 0.024. Sequence ATTTATTGAA has a switch fluorescence ratio of 0.996 ± 0.027. TCCATCTGCG gave a switch fluorescence ratio of 1.097 ± 0.007. With GCGCGGGGGG the switch fluorescence ratio was 1.02 ± 0.03. In the case of CCGTGGTTTA, the switch fluorescence ratio is reported as 1 ± 0.01. GGCTGAAGGG was tested, and the switch fluorescence ratio was 0.996 ± 0.014. ATAGTATTGA gave a switch fluorescence ratio of 0.969 ± 0.022. Sequence TTTTGTACAA has a switch fluorescence ratio of 1.04 ± 0.059. Sequence CTGGGACCAG has a switch fluorescence ratio of 1.019 ± 0.007. For ATCCTCGTTG, the switch fluorescence ratio was 1.02 ± 0.03. In the case of TTAACTGCTT, the switch fluorescence ratio is reported as 0.9894 ± 0.0088. With ATTGCAGTTT the switch fluorescence ratio was 0.986 ± 0.022. For GCGAACGGAG, the switch fluorescence ratio was 0.998 ± 0.011. For TGATTTGGCA, the switch fluorescence ratio was 1.02 ± 0.0023. ACGATTGTCT gave a switch fluorescence ratio of 0.973 ± 0.037. AATCAGGGTG was tested, and the switch fluorescence ratio was 1.16 ± 0.01. With GGGTTGCTTG the switch fluorescence ratio was 0.981 ± 0.049. Sequence TGAGGGAGCA has a switch fluorescence ratio of 1.01 ± 0.11. ATAAAAAGGG was tested, and the switch fluorescence ratio was 1 ± 0.029. Work on CGGTCCCGGC yielded a switch fluorescence ratio of 1.03 ± 0.05. With AAGGTTTGCG the switch fluorescence ratio was 1.01 ± 0.025. Sequence AGTTTCGGGA has a switch fluorescence ratio of 1 ± 0.033. ATATGCGGGT was tested, and the switch fluorescence ratio was 0.985 ± 0.032. In the case of TTGGGGTATC, the switch fluorescence ratio is reported as 1.01 ± 0.02. TCTGTGTTAT was tested, and the switch fluorescence ratio was 1 ± 0.026. In the case of GCTTCTTTTG, the switch fluorescence ratio is reported as 1.09 ± 0.15. GGGCTTTCTC was tested, and the switch fluorescence ratio was 1.09 ± 0.055. AGGATTCGGG was tested, and the switch fluorescence ratio was 1.01 ± 0.021. GTAAAATTGG gave a switch fluorescence ratio of 0.998 ± 0.025. With GGGGCCTCGG the switch fluorescence ratio was 0.997 ± 0.019. ATTTTTTTT showed a switch fluorescence ratio of 0.996 ± 0.024. GAACGATACA showed a switch fluorescence ratio of 1.334 ± 0.012. Work on ACAGTCTCTG yielded a switch fluorescence ratio of 1.03 ± 0.018. CGCATTTAAG showed a switch fluorescence ratio of 1.18 ± 0.046. With TCGGGGGCGG the switch fluorescence ratio was 1.02 ± 0.078. Work on TAATATAGTT yielded a switch fluorescence ratio of 1.01 ± 0.027. In the case of GTCTAACTGC, the switch fluorescence ratio is reported as 0.962 ± 0.033. Sequence AAGAGACAGG has a switch fluorescence ratio of 1.05 ± 0.042. AGCCTTGGGA was tested, and the switch fluorescence ratio was 1 ± 0.024. For GACCGGTGGG, the switch fluorescence ratio was 0.9787 ± 0.0065. In the case of ATCGAGAGGT, the switch fluorescence ratio is reported as 0.973 ± 0.019. For TTATCGTGTT, the switch fluorescence ratio was 0.984 ± 0.042. For GTGGTCTCCG, the switch fluorescence ratio was 0.982 ± 0.038. Sequence CACCAAGGTT has a switch fluorescence ratio of 1.15 ± 0.088. Sequence AGTTAGTGGT has a switch fluorescence ratio of 0.978 ± 0.023. In the case of AGGGGGTCGA, the switch fluorescence ratio is reported as 1.01 ± 0.035. TGTGATATAT gave a switch fluorescence ratio of 0.9877 ± 0.0011. GGCTGTGGCG was tested, and the switch fluorescence ratio was 0.9761 ± 0.0015. With GGCAACGCGT the switch fluorescence ratio was 1 ± 0.025. For TTTTACCCGC, the switch fluorescence ratio was 1.11 ± 0.078. Sequence GTTAATATAA has a switch fluorescence ratio of 0.9971 ± 0.003. TCGTTATGTA gave a switch fluorescence ratio of 0.992 ± 0.018. With AATTGGTGTT the switch fluorescence ratio was 0.985 ± 0.025. For TTGTTCATAC, the switch fluorescence ratio was 1.27 ± 0.37. In the case of GACTGTGGCA, the switch fluorescence ratio is reported as 1.013 ± 0.0021. TTGGCGCCTG showed a switch fluorescence ratio of 0.9947 ± 0.0075. AGTCTAAGTG gave a switch fluorescence ratio of 0.956 ± 0.021. Sequence CGGGGTTCGT has a switch fluorescence ratio of 0.983 ± 0.028. TATTTATCGG gave a switch fluorescence ratio of 0.991 ± 0.013. Work on CAGATTGAAT yielded a switch fluorescence ratio of 0.982 ± 0.024. For GATTGGTGGC, the switch fluorescence ratio was 1.04 ± 0.049. For TTTCCTCCCT, the switch fluorescence ratio was 1.84 ± 0.5. Sequence ATAGCAGTTA has a switch fluorescence ratio of 1.02 ± 0.01. ATATGTGTTG was tested, and the switch fluorescence ratio was 0.992 ± 0.0066. AGGGGGCCCG gave a switch fluorescence ratio of 1.009 ± 0.005. Sequence GGGGAAGATA has a switch fluorescence ratio of 0.9862 ± 0.0025.
